Reference: US20190153108A1 (AbbVie / Abbott, published 2019)
Positions count from the first letter of the chain named.

B1: AbA-CZ (antibody, V domains shown)
VH: EVQLQESGPGLVKPSQTLSLTCTVSGYSISRDFAWNWIRQPPGKGLEWMGYISYNGNTRYQPSLKSRITISRDTSKNQFFLKLNSVTAADTATYYCVTASRGFPYWGQGTLVTVSS
VL: DIQMTQSPSSMSVSVGDRVTITCHSSQDINSNIGWLQQKPGKSFKGLIYHGTNLDDGVPSRFSGSGSGTDYTLTISSLQPEDFATYYCVQYAQFPWTFGGGTKLEIKR
modifications: synthon CZ on reduced interchain Cys
B2: AbB-TX (antibody, V domains shown)
VH: B1 VH with R31N, N55K, Y105W
VL: B1 VL
modifications: synthon TX on reduced interchain Cys
B3: AbK-KZ (antibody, V domains shown)
VH: B1 VH with Y105W
VL: B1 VL with N30T, S31Y, I33V, T52S, D56H, A92D, Q93D
modifications: synthon KZ on reduced interchain Cys
B4: AbG-AAD (antibody, V domains shown)
VH: B1 VH with R31N, P41L, N55K, F103L
VL: B1 VL with N30T, S31Y, T52A, A92D, Q93E
modifications: synthon AAD on reduced interchain Cys
B5: AbA-SR (antibody, V domains shown)
VH: B1 VH
VL: B1 VL
modifications: synthon SR on reduced interchain Cys
B6: AbG-SE (antibody, V domains shown)
VH: B1 VH with R31N, P41L, N55K, F103L
VL: B1 VL with N30T, S31Y, T52A, A92D, Q93E
modifications: synthon SE on reduced interchain Cys
B7: AbG-TX (antibody, V domains shown)
VH: B1 VH with R31N, P41L, N55K, F103L
VL: B1 VL with N30T, S31Y, T52A, A92D, Q93E
modifications: synthon TX on reduced interchain Cys
B8: AbB-YG (antibody, V domains shown)
VH: B1 VH with R31N, N55K, Y105W
VL: B1 VL
modifications: synthon YG on reduced interchain Cys
B9: AbB-CZ (antibody, V domains shown)
VH: B1 VH with R31N, N55K, Y105W
VL: B1 VL
modifications: synthon CZ on reduced interchain Cys
B10: AbG-SR (antibody, V domains shown)
VH: B1 VH with R31N, P41L, N55K, F103L
VL: B1 VL with N30T, S31Y, T52A, A92D, Q93E
modifications: synthon SR on reduced interchain Cys
B11: AbA-YG (antibody, V domains shown)
VH: B1 VH
VL: B1 VL
modifications: synthon YG on reduced interchain Cys
B12: AbK-YG (antibody, V domains shown)
VH: B1 VH with Y105W
VL: B1 VL with N30T, S31Y, I33V, T52S, D56H, A92D, Q93D
modifications: synthon YG on reduced interchain Cys
B13: AbB-ZZ (antibody, V domains shown)
VH: B1 VH with R31N, N55K, Y105W
VL: B1 VL
modifications: synthon ZZ on reduced interchain Cys
B14: AbA-KZ (antibody, V domains shown)
VH: B1 VH
VL: B1 VL
modifications: synthon KZ on reduced interchain Cys
B15: AbB-XW (antibody, V domains shown)
VH: B1 VH with R31N, N55K, Y105W
VL: B1 VL
modifications: synthon XW on reduced interchain Cys
B16: AbA-SE (antibody, V domains shown)
VH: B1 VH
VL: B1 VL
modifications: synthon SE on reduced interchain Cys
B17: AbB-TV (antibody, V domains shown)
VH: B1 VH with R31N, N55K, Y105W
VL: B1 VL
modifications: synthon TV on reduced interchain Cys
B18: AbA-TX (antibody, V domains shown)
VH: B1 VH
VL: B1 VL
modifications: synthon TX on reduced interchain Cys
B19: AbG-CZ (antibody, V domains shown)
VH: B1 VH with R31N, P41L, N55K, F103L
VL: B1 VL with N30T, S31Y, T52A, A92D, Q93E
modifications: synthon CZ on reduced interchain Cys
B20: AbK-XW (antibody, V domains shown)
VH: B1 VH with Y105W
VL: B1 VL with N30T, S31Y, I33V, T52S, D56H, A92D, Q93D
modifications: synthon XW on reduced interchain Cys
B21: AbG-YY (antibody, V domains shown)
VH: B1 VH with R31N, P41L, N55K, F103L
VL: B1 VL with N30T, S31Y, T52A, A92D, Q93E
modifications: synthon YY on reduced interchain Cys
B22: AbG-ZZ (antibody, V domains shown)
VH: B1 VH with R31N, P41L, N55K, F103L
VL: B1 VL with N30T, S31Y, T52A, A92D, Q93E
modifications: synthon ZZ on reduced interchain Cys
B23: AbG-ZT (antibody, V domains shown)
VH: B1 VH with R31N, P41L, N55K, F103L
VL: B1 VL with N30T, S31Y, T52A, A92D, Q93E
modifications: synthon ZT on reduced interchain Cys
B24: AbB-SE (antibody, V domains shown)
VH: B1 VH with R31N, N55K, Y105W
VL: B1 VL
modifications: synthon SE on reduced interchain Cys
B25: AbK-TX (antibody, V domains shown)
VH: B1 VH with Y105W
VL: B1 VL with N30T, S31Y, I33V, T52S, D56H, A92D, Q93D
modifications: synthon TX on reduced interchain Cys
B26: AbB-SR (antibody, V domains shown)
VH: B1 VH with R31N, N55K, Y105W
VL: B1 VL
modifications: synthon SR on reduced interchain Cys
B27: AbB-YY (antibody, V domains shown)
VH: B1 VH with R31N, N55K, Y105W
VL: B1 VL
modifications: synthon YY on reduced interchain Cys
B28: AbG-TV (antibody, V domains shown)
VH: B1 VH with R31N, P41L, N55K, F103L
VL: B1 VL with N30T, S31Y, T52A, A92D, Q93E
modifications: synthon TV on reduced interchain Cys
B29: AbG-AAA (antibody, V domains shown)
VH: B1 VH with R31N, P41L, N55K, F103L
VL: B1 VL with N30T, S31Y, T52A, A92D, Q93E
modifications: synthon AAA on reduced interchain Cys
B30: AbG-XW (antibody, V domains shown)
VH: B1 VH with R31N, P41L, N55K, F103L
VL: B1 VL with N30T, S31Y, T52A, A92D, Q93E
modifications: synthon XW on reduced interchain Cys
B31: AbB-ZT (antibody, V domains shown)
VH: B1 VH with R31N, N55K, Y105W
VL: B1 VL
modifications: synthon ZT on reduced interchain Cys
B32: AbA-YY (antibody, V domains shown)
VH: B1 VH
VL: B1 VL
modifications: synthon YY on reduced interchain Cys
B33: AbA-XW (antibody, V domains shown)
VH: B1 VH
VL: B1 VL
modifications: synthon XW on reduced interchain Cys
B34: AbB-AAD (antibody, V domains shown)
VH: B1 VH with R31N, N55K, Y105W
VL: B1 VL
modifications: synthon AAD on reduced interchain Cys
B35: AbG-YG (antibody, V domains shown)
VH: B1 VH with R31N, P41L, N55K, F103L
VL: B1 VL with N30T, S31Y, T52A, A92D, Q93E
modifications: synthon YG on reduced interchain Cys
B36: AbK-ZZ (antibody, V domains shown)
VH: B1 VH with Y105W
VL: B1 VL with N30T, S31Y, I33V, T52S, D56H, A92D, Q93D
modifications: synthon ZZ on reduced interchain Cys
B37: AbA-AAA (antibody, V domains shown)
VH: B1 VH
VL: B1 VL
modifications: synthon AAA on reduced interchain Cys
B38: AbK-ZT (antibody, V domains shown)
VH: B1 VH with Y105W
VL: B1 VL with N30T, S31Y, I33V, T52S, D56H, A92D, Q93D
modifications: synthon ZT on reduced interchain Cys
B39: AbK-SR (antibody, V domains shown)
VH: B1 VH with Y105W
VL: B1 VL with N30T, S31Y, I33V, T52S, D56H, A92D, Q93D
modifications: synthon SR on reduced interchain Cys
B40: AbG-KZ (antibody, V domains shown)
VH: B1 VH with R31N, P41L, N55K, F103L
VL: B1 VL with N30T, S31Y, T52A, A92D, Q93E
modifications: synthon KZ on reduced interchain Cys
B41: AbA-AAD (antibody, V domains shown)
VH: B1 VH
VL: B1 VL
modifications: synthon AAD on reduced interchain Cys
B42: AbB-KZ (antibody, V domains shown)
VH: B1 VH with R31N, N55K, Y105W
VL: B1 VL
modifications: synthon KZ on reduced interchain Cys
B43: AbK-CZ (antibody, V domains shown)
VH: B1 VH with Y105W
VL: B1 VL with N30T, S31Y, I33V, T52S, D56H, A92D, Q93D
modifications: synthon CZ on reduced interchain Cys
B44: AbK-SE (antibody, V domains shown)
VH: B1 VH with Y105W
VL: B1 VL with N30T, S31Y, I33V, T52S, D56H, A92D, Q93D
modifications: synthon SE on reduced interchain Cys

target: human Epidermal Growth Factor Receptor (huEGFR) over-expressed in mcl-1-/- mouse embryonic fibroblasts (human, UniProt P00533 25-1210); assay: cell-based or functional assay

Binder	huEGFR^+ mcl-1^-/- MEF EC50
B1	0.3 nM
B2	11 nM
B3	224 nM
B4	108 nM
B5	5.9 nM
B6	24 nM
B7	5.3 nM
B8	3.3 nM
B9	5.9 nM
B10	7 nM
B11	6.4 nM
B12	37 nM
B13	7.4 nM
B14	152 nM
B15	0.65 nM
B16	105 nM
B17	2.4 nM
B18	16 nM
B19	3.4 nM
B20	0.6 nM
B21	> 500 nM
B22	68 nM

Binder	huEGFR^+ mcl-1^-/- MEF EC50
B23	33 nM
B24	39 nM
B25	0.79 nM
B26	7 nM
B27	51 nM
B28	2.6 nM
B29	220 nM
B30	19 nM
B31	8.9 nM
B32	460 nM
B33	32 nM
B34	4.6 nM
B35	1 nM
B36	45 nM
B37	220 nM
B38	0.2 nM
B39	8.9 nM
B40	96 nM
B41	65 nM
B42	55 nM
B43	0.1 nM
B44	161 nM
